{
  "source": "patent US8729232",
  "proteins": {"B1": {"name": "Streptomyces coelicolor formylglycine generating enzyme (Strep FGE, SCO7548), recombinant (protein)", "chain": "AVAAPSPAAAAEPGPAARPRSTRGQVRLPGGEFAMGDAFGEGYPADGETPVHTVRLRPFHIDETAVTNARFAAFVKATGHVTDAERFGSSAVFHLVVAAPDADVLGSAAGAPWWINVRGAHWRRPEGARSDITGRPNHPVVHVSWNDATAYARWAGKRLPTEAEWEYAARGGLAGRRYAWGDELTPGGRWRCNIWQGRFPHVNTAEDGHLSTAPVKSYRPNGHGLWNTAGNVWEWCSDWFSPTYYAESPTVDPHGPGTGAARVLRGGSYLCHDSYCNRYRVAARSSNTPDSSSGNLGFRCANDADLTSGSAAE"}},
  "key": {"[1]": {"target": "S. coelicolor sulfatase motif peptide … with Thr3 substituted by alanine"}, "[2]": {"target": "S. coelicolor sulfatase motif peptide … with Arg6 substituted by alanine"}, "[3]": {"target": "S. coelicolor sulfatase motif peptide … with Pro4 substituted by alanine"}, "[4]": {"target": "S. coelicolor sulfatase motif peptide … with Leu9 substituted by alanine"}},
  "data": [
    {"protein": "B1", "values": [
      {"measurement": "conversion of cysteine to FGly relative to the wild-type sequence", "setting": "[1]", "value": "substitution of Thr3, Pro4, Arg6, or Leu9 with alanine completely abrogated activity"},
      {"measurement": "conversion of cysteine to FGly relative to the wild-type sequence", "setting": "[2]", "value": "substitution of Thr3, Pro4, Arg6, or Leu9 with alanine completely abrogated activity"},
      {"measurement": "conversion of cysteine to FGly relative to the wild-type sequence", "setting": "[3]", "value": "substitution of Thr3, Pro4, Arg6, or Leu9 with alanine completely abrogated activity"},
      {"measurement": "conversion of cysteine to FGly relative to the wild-type sequence", "setting": "[4]", "value": "substitution of Thr3, Pro4, Arg6, or Leu9 with alanine completely abrogated activity"}
    ]}
  ]
}
